Experiment: yeast display, Sf9 membrane polyspecificity reagent, FACS + sequencing; frameworks hold sequencing errors
Summary of the method: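 Using colony PCR, genes from sorted yeast display clones were amplified, then sequenced on MiSeq at 2 × 250 and filtered by CDR length. The clones had been stained with 10% biotinylated, detergent-solubilized Sf9 membrane reagent for 1 hour at 4 °C and sorted by FACS into low and high (top ~1%) gates on anti-HA and streptavidin fluorescence. Polyreactivity labels come from the gate of origin.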

Row | Sequence | polyreactivity (PSR sort gate)
1 | QVQLVESGGGLVQAGARLRLSCAASGSILPTNAMGWYRQAPGKERELVASITYNGGRTSYADSVKWRFTISRDNAKNTVYLQMNSLKPEDTAVYYCAARVWYQGYKSMGYWGQGTQVPVSS | high polyreactivity
2 | QVQLVESGGGLVQAGGSLRLSCAASGSTLYYYAMGWYRQAPGKERELVAAITYSGGNTYYADSVKGRFTISRDNAKNTVYFQMNSLKPEDTAVYYCAADDWSSDYIRYEYWGQGTQVTVSS | low polyreactivity
3 | QVQLVESGGGLVQAGGSLRLSCAASGSTFRRNDMGWYRQAPGKERELVAAITSGGITNYADSVKGRFTISRDNAKNTVYLQMNSLKPEDTAVYYCNKDSDLHHYHTEFDYWGQGTQVTVSS | low polyreactivity
4 | QVQLVESGGGLVQAGGSLRLSCAASGYTFGQYAMGWYRQAPGKEREMVAAISSGGGSTYYADSVKGRFTISRDNAKTTVYLQMNSLKPEDTAVYYCAAQYLYPTYRYGYWGQGTQVTVSS | high polyreactivity
5 | QVQLVESGGGLVQAGGSLRLSCAASGFIFRRYTMGWYRQAPGKERELVAAISSRGGSTYYADSVKGRFTISRDNAKNTVYLQMNSLKPEDTAVYYCNAGLGVRRRYDYWGQGTQVTVSS | high polyreactivity
6 | QVQLVESGGGLVQAGGSLRLSCAASGYTFGLYTMGWYRQAPGKEREFVATIDWSEGGTHYADSVKGRFTISRDIAKISVYLQMNSLKPEYTAVYYCNADWYAYPYGYWGQGTQVTVSS | low polyreactivity
7 | QVQLVESGGGLVQAGGSLRLSCAASGFTFEYNDMGWYRQAPGIERELVDSISYDSDSTYYADSVKGRFTISRDNAKNTVYLQMNRLKPEDTAVYYCNAGSSYHEYGYWGQGTQVTVSS | high polyreactivity
8 | QVQLVESGGGLVQAGGSLRLSCAASGRNFYYNAMGWYRPAPGKERELVAAISSGGSTTYADSVKGRFTISRDNAKNTVYLQLNSLKPEDTAVYYCNADISAHYVIGVPTGYYWGQGTQVTVSS | low polyreactivity
9 | QVQLVESGGGLVQAGGSLRLSCAASGFIISPYAMGWYRQAPGKERELVAAISWSGVSTYYADSVKGRFTISRDNAKNTVYLQMNSLKPEDTAVYYCATYRPVYYWGQGTQVTVSS | high polyreactivity
10 | QVQLVESGGGLVQAGGSLRLSCAASGSIFVSYARGWYRQAPGKERELVAAITGRTGSTYYADSVKGRFTISRDNAKNTVYLQMNSLKAEDTGVYYCAARHKQHNRYDYWGQGTKVTVSS | low polyreactivity
11 | QVQLVESGGGLVQAGGSLRLSCDASGLTFSWYAMGWSRQAPGKERELVAAISRSGGSTYYADSVKGRFSISRDKAKNTVYLQMNSLKPEDTGVYYCAAETDIAPDYDYWGQGTQVTVSS | low polyreactivity
12 | QDQLVESVGGLVQAGGSLRLSCAASGRTIDPNAMGWYRQAPGKERELVAAITRTGVRTYYADSVKGRFTISRDNAKNTVYLQMNSLKPEDTAVYYCAASYSGRQDRYPHYDYWGQGTQVTVSS | low polyreactivity
13 | QVQLVESGGGLVKAGGSLRLSCDASGLTFNANPMGWYRQEPGKESELVAAIDWIGVSTYYADSVKGRFTISRDNAKNTVYLQMNSLKPEDTAVYYCAAEYDYNFGGNDLWYYYWGQGTQVTVSS | high polyreactivity
14 | QVQLVESGGGLVQAGGSLRLSCAASGRTLRLNAMGWYRQAPGKQREFVDAISRSGDSTYYADSVKGRFTISRDNAKNTVYLQMNSLKPEDTAVYYCNAKYYRYPCAYRYDYWGQGTQVTVSS | high polyreactivity
15 | QVQLVESGGGLVQAGGSLRLSCAASGFTFPYYAMGWYRQAPGKERELVAGISWDGDSTYYADSVKGRFTISRDNAKNTVYLQMNSLKPEDTAVYYCAAGYITYYYGEYGYWGQGTQVTVSS | low polyreactivity
16 | QVQLVESGGGLVQAGGSLRLSCAASGYTFEYNAMGWYRQATGKEREFVATITASGDSTYYADSVKGRFTISRDNAKNTVYLQMNSLKPEDTAVYYCATEKRDVYFTAKYDYWGQGTQVTVSS | low polyreactivity
17 | QVQLLESGGGLVQAGGSLSLTCAASGSTFTRYVMGWYRQAPGTETELVAAISSNGGRTYYADSVKGRFTISRDNAKNTVDLQMTSLKPEDTAVYYCNLVRYAYNASVVYWGQGTQVTVSS | high polyreactivity
